Legend:
Experiment in all cases: SPR (Biacore); binding relative to GpH7-A5/GpH7-B3/GpL16-k0 x100;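 further: antibodies captured on a chip surface, soluble FcγR flowed over in HBS-EP+ running buffer at 25 °C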
[1] = target: T1, FcγRIa extracellular domain, C-terminal His tag (human, UniProt P12314 16-292)
T1 construct: extracellular domain; also called 1a

[2] = target: T2, FcγRIIa(R) extracellular domain, C-terminal His tag (human, UniProt P12318 34-217)
T2 construct: extracellular domain; Allotype R131; also called 2aR
T2 sequence: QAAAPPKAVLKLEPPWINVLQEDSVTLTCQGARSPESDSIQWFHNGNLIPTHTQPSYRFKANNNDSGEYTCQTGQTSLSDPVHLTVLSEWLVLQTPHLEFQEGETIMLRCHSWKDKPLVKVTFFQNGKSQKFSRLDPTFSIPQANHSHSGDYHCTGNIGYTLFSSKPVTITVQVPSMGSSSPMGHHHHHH

[3] = target: T3, FcγRIIa(H) extracellular domain, C-terminal His tag (human, UniProt P12318 34-217)
T3 construct: extracellular domain; Allotype H131; also called 2aH
T3 sequence: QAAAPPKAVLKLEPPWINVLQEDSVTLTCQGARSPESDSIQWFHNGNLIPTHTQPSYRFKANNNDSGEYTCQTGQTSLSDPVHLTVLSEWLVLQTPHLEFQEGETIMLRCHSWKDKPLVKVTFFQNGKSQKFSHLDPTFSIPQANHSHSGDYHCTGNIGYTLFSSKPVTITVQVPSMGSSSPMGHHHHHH

[4] = target: T4, FcγRIIb extracellular domain, C-terminal His tag (human, UniProt P31994 43-217)
T4 construct: extracellular domain; also called 2b
T4 sequence: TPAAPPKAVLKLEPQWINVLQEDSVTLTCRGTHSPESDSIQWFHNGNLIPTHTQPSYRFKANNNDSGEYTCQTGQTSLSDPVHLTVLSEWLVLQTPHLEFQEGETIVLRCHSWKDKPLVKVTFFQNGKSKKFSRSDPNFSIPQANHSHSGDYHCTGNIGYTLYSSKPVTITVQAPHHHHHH

[5] = target: T5, FcγRIIIa extracellular domain, C-terminal His tag (human, UniProt P08637 17-208)
T5 construct: extracellular domain; also called 3a
T5 sequence (P08637 other isoform, or with tags, fused parts or gaps): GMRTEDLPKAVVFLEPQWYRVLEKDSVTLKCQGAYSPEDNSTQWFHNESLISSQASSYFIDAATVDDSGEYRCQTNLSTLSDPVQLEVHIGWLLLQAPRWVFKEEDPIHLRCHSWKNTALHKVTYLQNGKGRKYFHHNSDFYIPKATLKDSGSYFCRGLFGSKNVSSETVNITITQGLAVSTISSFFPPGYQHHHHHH

T1 sequence (P12314 other isoform, or with tags, fused parts or gaps): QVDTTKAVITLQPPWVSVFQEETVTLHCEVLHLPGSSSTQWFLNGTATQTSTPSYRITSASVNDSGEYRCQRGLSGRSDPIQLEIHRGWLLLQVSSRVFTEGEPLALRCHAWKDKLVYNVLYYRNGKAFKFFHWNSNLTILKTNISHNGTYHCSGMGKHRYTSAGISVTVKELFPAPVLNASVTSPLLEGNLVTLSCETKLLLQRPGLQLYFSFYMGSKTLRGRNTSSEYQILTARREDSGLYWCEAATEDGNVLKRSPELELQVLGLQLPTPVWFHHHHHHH

B1: GpH7-A5/GpH7-B3 variant A330_03V/GpL16-k0 (antibody, human IgG1, kappa)
heavy 1: not shown
heavy 2: not shown
light: DIVMTQSPLSLPVTPGEPASISCQASESLVHSNRNTYLHWYLQKPGQSPQLLIYKVSNRFSGVPDRFSGSGSGTDFTLKISRVEAEDVGVYYCSQNTHVPPTFGQGTKVEIERTVAAPSVFIFPPSDEQLKSGTASVVCLLNNFYPREAKVQWKVDNALQSGNSQESVTEQDSKDSTYSLSSTLTLSKADYEKHKVYACEVTHQGLSSPVTKSFNRGEC
notes: He Ab: anti-glypican 3 IgG1 heterodimer, only the GpH7-B3 chain mutated; position in EU numbering; also called He Ab
He/Con 1a [1]: 109% | He/Con 2aR [2]: 84% | He/Con 2aH [3]: 86.1% | He/Con 2b [4]: 59.2% | He/Con 3a [5]: 98.8%

B2: GpH7-A5/GpH7-B3 variant A330_14T/GpL16-k0 (antibody, human IgG1, kappa)
heavy 1: not shown
heavy 2: not shown
light: DIVMTQSPLSLPVTPGEPASISCQASESLVHSNRNTYLHWYLQKPGQSPQLLIYKVSNRFSGVPDRFSGSGSGTDFTLKISRVEAEDVGVYYCSQNTHVPPTFGQGTKVEIERTVAAPSVFIFPPSDEQLKSGTASVVCLLNNFYPREAKVQWKVDNALQSGNSQESVTEQDSKDSTYSLSSTLTLSKADYEKHKVYACEVTHQGLSSPVTKSFNRGEC
notes: as for B1
He/Con 1a [1]: 108% | He/Con 2aR [2]: 107% | He/Con 2aH [3]: 102% | He/Con 2b [4]: 87.9% | He/Con 3a [5]: 85.8%

B3: GpH7-A5/GpH7-B3 variant A330_07I/GpL16-k0 (antibody, human IgG1, kappa)
heavy 1: not shown
heavy 2: not shown
light: DIVMTQSPLSLPVTPGEPASISCQASESLVHSNRNTYLHWYLQKPGQSPQLLIYKVSNRFSGVPDRFSGSGSGTDFTLKISRVEAEDVGVYYCSQNTHVPPTFGQGTKVEIERTVAAPSVFIFPPSDEQLKSGTASVVCLLNNFYPREAKVQWKVDNALQSGNSQESVTEQDSKDSTYSLSSTLTLSKADYEKHKVYACEVTHQGLSSPVTKSFNRGEC
notes: as for B1
He/Con 1a [1]: 109% | He/Con 2aR [2]: 96% | He/Con 2aH [3]: 94.4% | He/Con 2b [4]: 75.8% | He/Con 3a [5]: 101%

B4: GpH7-A5/GpH7-B3 variant A330_06M/GpL16-k0 (antibody, human IgG1, kappa)
heavy 1: not shown
heavy 2: not shown
light: DIVMTQSPLSLPVTPGEPASISCQASESLVHSNRNTYLHWYLQKPGQSPQLLIYKVSNRFSGVPDRFSGSGSGTDFTLKISRVEAEDVGVYYCSQNTHVPPTFGQGTKVEIERTVAAPSVFIFPPSDEQLKSGTASVVCLLNNFYPREAKVQWKVDNALQSGNSQESVTEQDSKDSTYSLSSTLTLSKADYEKHKVYACEVTHQGLSSPVTKSFNRGEC
notes: as for B1
He/Con 1a [1]: 108% | He/Con 2aR [2]: 107% | He/Con 2aH [3]: 101% | He/Con 2b [4]: 90.9% | He/Con 3a [5]: 139%

B5: GpH7-A5/GpH7-B3 variant A330_08L/GpL16-k0 (antibody, human IgG1, kappa)
heavy 1: not shown
heavy 2: not shown
light: DIVMTQSPLSLPVTPGEPASISCQASESLVHSNRNTYLHWYLQKPGQSPQLLIYKVSNRFSGVPDRFSGSGSGTDFTLKISRVEAEDVGVYYCSQNTHVPPTFGQGTKVEIERTVAAPSVFIFPPSDEQLKSGTASVVCLLNNFYPREAKVQWKVDNALQSGNSQESVTEQDSKDSTYSLSSTLTLSKADYEKHKVYACEVTHQGLSSPVTKSFNRGEC
notes: as for B1
He/Con 1a [1]: 110% | He/Con 2aR [2]: 99.7% | He/Con 2aH [3]: 94.7% | He/Con 2b [4]: 79.6% | He/Con 3a [5]: 122%

B6: GpH7-A5/GpH7-B3 variant A330_18N/GpL16-k0 (antibody, human IgG1, kappa)
heavy 1: not shown
heavy 2: not shown
light: DIVMTQSPLSLPVTPGEPASISCQASESLVHSNRNTYLHWYLQKPGQSPQLLIYKVSNRFSGVPDRFSGSGSGTDFTLKISRVEAEDVGVYYCSQNTHVPPTFGQGTKVEIERTVAAPSVFIFPPSDEQLKSGTASVVCLLNNFYPREAKVQWKVDNALQSGNSQESVTEQDSKDSTYSLSSTLTLSKADYEKHKVYACEVTHQGLSSPVTKSFNRGEC
notes: as for B1
He/Con 1a [1]: 110% | He/Con 2aR [2]: 91% | He/Con 2aH [3]: 88.3% | He/Con 2b [4]: 71.9% | He/Con 3a [5]: 67.3%

B7: GpH7-A5/GpH7-B3 variant A330_11K/GpL16-k0 (antibody, human IgG1, kappa)
heavy 1: not shown
heavy 2: not shown
light: DIVMTQSPLSLPVTPGEPASISCQASESLVHSNRNTYLHWYLQKPGQSPQLLIYKVSNRFSGVPDRFSGSGSGTDFTLKISRVEAEDVGVYYCSQNTHVPPTFGQGTKVEIERTVAAPSVFIFPPSDEQLKSGTASVVCLLNNFYPREAKVQWKVDNALQSGNSQESVTEQDSKDSTYSLSSTLTLSKADYEKHKVYACEVTHQGLSSPVTKSFNRGEC
notes: as for B1
He/Con 1a [1]: 107% | He/Con 2aR [2]: 124% | He/Con 2aH [3]: 118% | He/Con 2b [4]: 107% | He/Con 3a [5]: 91.8%

B8: GpH7-A5/GpH7-B3 variant A330_15Y/GpL16-k0 (antibody, human IgG1, kappa)
heavy 1: not shown
heavy 2: not shown
light: DIVMTQSPLSLPVTPGEPASISCQASESLVHSNRNTYLHWYLQKPGQSPQLLIYKVSNRFSGVPDRFSGSGSGTDFTLKISRVEAEDVGVYYCSQNTHVPPTFGQGTKVEIERTVAAPSVFIFPPSDEQLKSGTASVVCLLNNFYPREAKVQWKVDNALQSGNSQESVTEQDSKDSTYSLSSTLTLSKADYEKHKVYACEVTHQGLSSPVTKSFNRGEC
notes: as for B1
He/Con 1a [1]: 108% | He/Con 2aR [2]: 114% | He/Con 2aH [3]: 106% | He/Con 2b [4]: 107% | He/Con 3a [5]: 122%

B9: GpH7-A5/GpH7-B3 variant A330_16H/GpL16-k0 (antibody, human IgG1, kappa)
heavy 1: not shown
heavy 2: not shown
light: DIVMTQSPLSLPVTPGEPASISCQASESLVHSNRNTYLHWYLQKPGQSPQLLIYKVSNRFSGVPDRFSGSGSGTDFTLKISRVEAEDVGVYYCSQNTHVPPTFGQGTKVEIERTVAAPSVFIFPPSDEQLKSGTASVVCLLNNFYPREAKVQWKVDNALQSGNSQESVTEQDSKDSTYSLSSTLTLSKADYEKHKVYACEVTHQGLSSPVTKSFNRGEC
notes: as for B1
He/Con 1a [1]: 109% | He/Con 2aR [2]: 111% | He/Con 2aH [3]: 110% | He/Con 2b [4]: 99% | He/Con 3a [5]: 102%

B10: GpH7-A5/GpH7-B3 variant A330_12R/GpL16-k0 (antibody, human IgG1, kappa)
heavy 1: not shown
heavy 2: not shown
light: DIVMTQSPLSLPVTPGEPASISCQASESLVHSNRNTYLHWYLQKPGQSPQLLIYKVSNRFSGVPDRFSGSGSGTDFTLKISRVEAEDVGVYYCSQNTHVPPTFGQGTKVEIERTVAAPSVFIFPPSDEQLKSGTASVVCLLNNFYPREAKVQWKVDNALQSGNSQESVTEQDSKDSTYSLSSTLTLSKADYEKHKVYACEVTHQGLSSPVTKSFNRGEC
notes: as for B1
He/Con 1a [1]: 103% | He/Con 2aR [2]: 116% | He/Con 2aH [3]: 116% | He/Con 2b [4]: 95.8% | He/Con 3a [5]: 77.3%

B11: GpH7-A5/GpH7-B3 variant A330_09D/GpL16-k0 (antibody, human IgG1, kappa)
heavy 1: not shown
heavy 2: not shown
light: DIVMTQSPLSLPVTPGEPASISCQASESLVHSNRNTYLHWYLQKPGQSPQLLIYKVSNRFSGVPDRFSGSGSGTDFTLKISRVEAEDVGVYYCSQNTHVPPTFGQGTKVEIERTVAAPSVFIFPPSDEQLKSGTASVVCLLNNFYPREAKVQWKVDNALQSGNSQESVTEQDSKDSTYSLSSTLTLSKADYEKHKVYACEVTHQGLSSPVTKSFNRGEC
notes: as for B1
He/Con 1a [1]: 112% | He/Con 2aR [2]: 79.5% | He/Con 2aH [3]: 67.8% | He/Con 2b [4]: 62.8% | He/Con 3a [5]: 56.4%

B12: GpH7-A5/GpH7-B3 variant A330_10E/GpL16-k0 (antibody, human IgG1, kappa)
heavy 1: not shown
heavy 2: not shown
light: DIVMTQSPLSLPVTPGEPASISCQASESLVHSNRNTYLHWYLQKPGQSPQLLIYKVSNRFSGVPDRFSGSGSGTDFTLKISRVEAEDVGVYYCSQNTHVPPTFGQGTKVEIERTVAAPSVFIFPPSDEQLKSGTASVVCLLNNFYPREAKVQWKVDNALQSGNSQESVTEQDSKDSTYSLSSTLTLSKADYEKHKVYACEVTHQGLSSPVTKSFNRGEC
notes: as for B1
He/Con 1a [1]: 111% | He/Con 2aR [2]: 97.2% | He/Con 2aH [3]: 87.7% | He/Con 2b [4]: 79.2% | He/Con 3a [5]: 82.8%

B13: GpH7-A5/GpH7-B3 variant A330_04F/GpL16-k0 (antibody, human IgG1, kappa)
heavy 1: not shown
heavy 2: not shown
light: DIVMTQSPLSLPVTPGEPASISCQASESLVHSNRNTYLHWYLQKPGQSPQLLIYKVSNRFSGVPDRFSGSGSGTDFTLKISRVEAEDVGVYYCSQNTHVPPTFGQGTKVEIERTVAAPSVFIFPPSDEQLKSGTASVVCLLNNFYPREAKVQWKVDNALQSGNSQESVTEQDSKDSTYSLSSTLTLSKADYEKHKVYACEVTHQGLSSPVTKSFNRGEC
notes: as for B1
He/Con 1a [1]: 110% | He/Con 2aR [2]: 112% | He/Con 2aH [3]: 104% | He/Con 2b [4]: 105% | He/Con 3a [5]: 144%
